Measured values published in article PMC12756731, “Substitution of Zn^2+ with Ni^2+ Alters Kinetic Steps in D‑2-Hydroxyglutarate Dehydrogenase from Pseudomonas aeruginosa PAO1” (ACS Omega, 2025).

T1: D-2-hydroxyglutarate dehydrogenase (P. aeruginosa D2HGDH; EFAD-Zn^2+, EFAD-Ni^2+) (Pseudomonas aeruginosa, UniProt Q9I6H4)
T1 construct: gene PA0317; 6 His-tag at the tail of the gene (C-terminal), pET20b(+), E. coli Rosetta(DE3)pLysS; loaded with Zn2+ or Ni2+
T1 sequence (Q9I6H4 1-464): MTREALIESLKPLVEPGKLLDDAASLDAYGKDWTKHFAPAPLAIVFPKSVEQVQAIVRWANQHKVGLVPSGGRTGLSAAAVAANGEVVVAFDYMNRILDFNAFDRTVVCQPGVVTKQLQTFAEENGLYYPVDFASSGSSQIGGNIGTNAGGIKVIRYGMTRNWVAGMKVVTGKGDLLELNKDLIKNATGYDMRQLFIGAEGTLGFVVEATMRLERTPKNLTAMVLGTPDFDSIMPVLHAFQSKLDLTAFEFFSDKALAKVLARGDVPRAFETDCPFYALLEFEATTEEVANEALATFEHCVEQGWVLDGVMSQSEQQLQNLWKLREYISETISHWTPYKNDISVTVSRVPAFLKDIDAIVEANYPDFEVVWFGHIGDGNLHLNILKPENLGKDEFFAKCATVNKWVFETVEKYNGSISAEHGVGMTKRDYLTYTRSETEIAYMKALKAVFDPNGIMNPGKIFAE

B1: D-2-hydroxyglutarate dehydrogenase (P. aeruginosa D2HGDH; EFAD-Zn^2+, EFAD-Ni^2+) (Pseudomonas aeruginosa PAO1) (protein)
chain: MTREALIESLKPLVEPGKLLDDAASLDAYGKDWTKHFAPAPLAIVFPKSVEQVQAIVRWANQHKVGLVPSGGRTGLSAAAVAANGEVVVAFDYMNRILDFNAFDRTVVCQPGVVTKQLQTFAEENGLYYPVDFASSGSSQIGGNIGTNAGGIKVIRYGMTRNWVAGMKVVTGKGDLLELNKDLIKNATGYDMRQLFIGAEGTLGFVVEATMRLERTPKNLTAMVLGTPDFDSIMPVLHAFQSKLDLTAFEFFSDKALAKVLARGDVPRAFETDCPFYALLEFEATTEEVANEALATFEHCVEQGWVLDGVMSQSEQQLQNLWKLREYISETISHWTPYKNDISVTVSRVPAFLKDIDAIVEANYPDFEVVWFGHIGDGNLHLNILKPENLGKDEFFAKCATVNKWVFETVEKYNGSISAEHGVGMTKRDYLTYTRSETEIAYMKALKAVFDPNGIMNPGKIFAE
notes: 6 His-tag at the tail of the gene (C-terminal), pET20b(+), E. coli Rosetta(DE3)pLysS; loaded with Zn2+ or Ni2+

What was measured:
[1] = molecular target: T1, D-2-hydroxyglutarate dehydrogenase (P. aeruginosa D2HGDH; EFAD-Zn^2+, EFAD-Ni^2+); test: UV-vis absorbance of purified enzyme with bound flavin; assay type: binding; settings: co-purified oxidized FAD in EFAD-Ni2+ enzyme; maxima at 380 and 450 nm
[2] = substrate: O=C(O)CC[C@@H](O)C(=O)O; test: PMS-driven oxygen consumption, Clark-type oxygen electrode, initial rates; assay type: biochemical, Pseudomonas aeruginosa; settings: 1 mM PMS (saturating), 25 mM NaPO4, pH 7.4, 25 °C
Description: PMS-driven oxygen consumption, Clark-type oxygen electrode, initial rates on D-2-hydroxyglutarate dehydrogenase (P. aeruginosa D2HGDH; EFAD-Zn^2+, EFAD-Ni^2+)

[3] = Ni2+-substituted enzyme (EFAD-Ni2+), non-native metal
[4] = native Zn2+-loaded enzyme (EFAD-Zn2+)

Molecule	UV-vis absorbance of purified enzyme with bound flavin [1]	Km [2, 3] [µM]	kcat [2, 3] [s⁻¹]	kcat/Km [2, 3] [M⁻¹ s⁻¹]	Km [2, 4] [µM]	kcat [2, 4] [s⁻¹]	kcat/Km [2, 4] [M⁻¹ s⁻¹]
Cc1cc2nc3c(=O)[nH]c(=O)nc-3n(C[C@H](O)[C@H](O)[C@H](O)COP(=O)(O)OP(=O)(O)OC[C@H]3O[C@@H](n4cnc5c(N)ncnc54)[C@H](O)[C@@H]3O)c2cc1C [FAD]	enzyme was in a fully oxidized state with the bound FAD cofactor	–	–	–	–	–	–
B1	–	140 ± 10	18 ± 1	130000 ± 9000	150 ± 10	30 ± 1	205000 ± 10000
